Data as given in patent publication US20140087995A1 (published 2014).
Numbered stars: 1 amine (or outer) side, 2 acyl side, 3 side chain; on linkers, the order of the positions; unused ones are H or OH. Bridge positions count the residues as written; N and C are the ends. Side chains are listed from the residue outwards. Ends that are not written are not given here. * marks the point of attachment. C20 diacid = O=C(O)CCCCCCCCCCCCCCCCCCC(=O)*; γGlu = O=C(O)[C@H](CCC(=O)[*:2])N[*:1]; AEEA = NCCOCCOCC(=O)O

T1: rat calcitonin receptor (rat, UniProt P32214 25-516)
T1 construct: whole, on cells; Cell membranes of transiently transfected BHK tk'ts 13 cells (Assay VIII); also called rCTR; rCT
T1 sequence (looked up): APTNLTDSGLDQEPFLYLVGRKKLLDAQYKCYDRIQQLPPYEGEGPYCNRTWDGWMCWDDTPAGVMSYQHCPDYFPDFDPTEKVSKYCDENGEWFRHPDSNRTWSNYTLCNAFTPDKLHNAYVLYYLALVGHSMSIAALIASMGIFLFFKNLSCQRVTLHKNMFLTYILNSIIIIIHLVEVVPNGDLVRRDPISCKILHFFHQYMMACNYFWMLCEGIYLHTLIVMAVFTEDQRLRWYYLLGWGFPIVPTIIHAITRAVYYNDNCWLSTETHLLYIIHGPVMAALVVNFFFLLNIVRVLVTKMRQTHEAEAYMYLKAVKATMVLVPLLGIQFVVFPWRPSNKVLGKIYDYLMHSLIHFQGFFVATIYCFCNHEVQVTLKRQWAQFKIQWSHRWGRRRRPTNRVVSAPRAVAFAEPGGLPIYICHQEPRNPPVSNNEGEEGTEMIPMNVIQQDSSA

T2: rat amylin receptor (rat calcitonin receptor + rat RAMP 3) (rat, UniProt P32214 25-516; Q9JJ73 23-147)
T2 construct: whole, on cells; Cell membranes of transiently transfected BHK tk'ts 13 cells (Assay VI); also called rAmylin-R; rat amylin 3(a) receptor
T2 sequence (looked up) 1: T1 sequence (looked up)
T2 sequence (looked up) 2: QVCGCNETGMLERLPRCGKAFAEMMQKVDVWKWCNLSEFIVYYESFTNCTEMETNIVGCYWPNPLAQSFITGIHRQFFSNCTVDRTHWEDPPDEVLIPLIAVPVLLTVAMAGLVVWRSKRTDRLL

T3: human calcitonin receptor (human, UniProt P30988 25-474)
T3 construct: whole, on cells; Cell membranes of a stably transfected BHK cell line (Assay VII); also called hCTR; hCT
T3 sequence (looked up): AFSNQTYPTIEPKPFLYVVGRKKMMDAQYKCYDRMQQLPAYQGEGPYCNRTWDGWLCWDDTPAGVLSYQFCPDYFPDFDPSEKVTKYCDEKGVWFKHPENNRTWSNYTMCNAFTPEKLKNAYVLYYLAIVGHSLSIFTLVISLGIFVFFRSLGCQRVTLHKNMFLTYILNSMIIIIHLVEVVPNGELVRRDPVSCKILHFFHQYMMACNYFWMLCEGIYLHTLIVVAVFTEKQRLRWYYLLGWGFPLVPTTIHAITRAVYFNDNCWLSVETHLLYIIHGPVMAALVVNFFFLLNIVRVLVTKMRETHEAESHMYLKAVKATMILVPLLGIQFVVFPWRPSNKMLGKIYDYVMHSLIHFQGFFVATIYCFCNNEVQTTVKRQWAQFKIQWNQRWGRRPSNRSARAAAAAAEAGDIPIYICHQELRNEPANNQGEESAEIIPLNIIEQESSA

B1: N^ε1-[(4S)-4-carboxy-4-[[(4S)-4-carboxy-4-(19-carboxynonadecanoylamino)butanoyl]amino]butanoyl]-[Asp14,Arg17,Pro21,Pro26,Asp35]-h-amylin (peptide)
peptide: K([γGlu-γGlu-C20 diacid])CNTATCATQRLADFLRHSSPNFGAPLSSTNVGSDTY-NH2
modifications: disulfide 2-7; N-terminus assumed
SMILES: CC(C)C[C@H](NC(=O)[C@H](CCCNC(=N)N)NC(=O)[C@H](CCC(N)=O)NC(=O)[C@@H](NC(=O)[C@H](C)NC(=O)[C@@H]1CSSC[C@H](NC(=O)[C@@H](N)CCCCNC(=O)CC[C@H](NC(=O)CC[C@H](NC(=O)CCCCCCCCCCCCCCCCCCC(=O)O)C(=O)O)C(=O)O)C(=O)N[C@@H](CC(N)=O)C(=O)N[C@@H]([C@@H](C)O)C(=O)N[C@@H](C)C(=O)N[C@@H]([C@@H](C)O)C(=O)N1)[C@@H](C)O)C(=O)N[C@@H](C)C(=O)N[C@@H](CC(=O)O)C(=O)N[C@@H](Cc1ccccc1)C(=O)N[C@@H](CC(C)C)C(=O)N[C@@H](CCCNC(=N)N)C(=O)N[C@@H](Cc1c[nH]cn1)C(=O)N[C@@H](CO)C(=O)N[C@@H](CO)C(=O)N1CCC[C@H]1C(=O)N[C@@H](CC(N)=O)C(=O)N[C@@H](Cc1ccccc1)C(=O)NCC(=O)N[C@@H](C)C(=O)N1CCC[C@H]1C(=O)N[C@@H](CC(C)C)C(=O)N[C@@H](CO)C(=O)N[C@@H](CO)C(=O)N[C@H](C(=O)N[C@@H](CC(N)=O)C(=O)N[C@H](C(=O)NCC(=O)N[C@@H](CO)C(=O)N[C@@H](CC(=O)O)C(=O)N[C@H](C(=O)N[C@@H](Cc1ccc(O)cc1)C(N)=O)[C@@H](C)O)C(C)C)[C@@H](C)O
notes: Acylated analogue of human amylin; also called compound 1
B2: N^ε1-[(4S)-4-carboxy-4-[[(4S)-4-carboxy-4-(19-carboxynonadecanoylamino)butanoyl]amino]butanoyl]-[Asp14,Arg17,Pro21,Pro27,Asp35]-h-amylin (peptide)
peptide: K([γGlu-γGlu-C20 diacid])CNTATCATQRLADFLRHSSPNFGAIPSSTNVGSDTY-NH2
modifications: disulfide 2-7; N-terminus assumed
SMILES: CC[C@H](C)[C@H](NC(=O)[C@H](C)NC(=O)CNC(=O)[C@H](Cc1ccccc1)NC(=O)[C@H](CC(N)=O)NC(=O)[C@@H]1CCCN1C(=O)[C@H](CO)NC(=O)[C@H](CO)NC(=O)[C@H](Cc1c[nH]cn1)NC(=O)[C@H](CCCNC(=N)N)NC(=O)[C@H](CC(C)C)NC(=O)[C@H](Cc1ccccc1)NC(=O)[C@H](CC(=O)O)NC(=O)[C@H](C)NC(=O)[C@H](CC(C)C)NC(=O)[C@H](CCCNC(=N)N)NC(=O)[C@H](CCC(N)=O)NC(=O)[C@@H](NC(=O)[C@H](C)NC(=O)[C@@H]1CSSC[C@H](NC(=O)[C@@H](N)CCCCNC(=O)CC[C@H](NC(=O)CC[C@H](NC(=O)CCCCCCCCCCCCCCCCCCC(=O)O)C(=O)O)C(=O)O)C(=O)N[C@@H](CC(N)=O)C(=O)N[C@@H]([C@@H](C)O)C(=O)N[C@@H](C)C(=O)N[C@@H]([C@@H](C)O)C(=O)N1)[C@@H](C)O)C(=O)N1CCC[C@H]1C(=O)N[C@@H](CO)C(=O)N[C@@H](CO)C(=O)N[C@H](C(=O)N[C@@H](CC(N)=O)C(=O)N[C@H](C(=O)NCC(=O)N[C@@H](CO)C(=O)N[C@@H](CC(=O)O)C(=O)N[C@H](C(=O)N[C@@H](Cc1ccc(O)cc1)C(N)=O)[C@@H](C)O)C(C)C)[C@@H](C)O
notes: Acylated analogue of human amylin; also called compound 2
B3: N{Alpha-1}-[(4S)-4-carboxy-4-(19-carboxynonadecanoylamino)butanoyl]-[Glu14,Arg17,Pro21,Pro27,Lys34]-h-amylin (peptide)
peptide: {C20 diacid-γGlu}-KCNTATCATQRLAEFLRHSSPNFGAIPSSTNVGKNTY-NH2
modifications: disulfide 2-7
SMILES: CC[C@H](C)[C@H](NC(=O)[C@H](C)NC(=O)CNC(=O)[C@H](Cc1ccccc1)NC(=O)[C@H](CC(N)=O)NC(=O)[C@@H]1CCCN1C(=O)[C@H](CO)NC(=O)[C@H](CO)NC(=O)[C@H](Cc1c[nH]cn1)NC(=O)[C@H](CCCNC(=N)N)NC(=O)[C@H](CC(C)C)NC(=O)[C@H](Cc1ccccc1)NC(=O)[C@H](CCC(=O)O)NC(=O)[C@H](C)NC(=O)[C@H](CC(C)C)NC(=O)[C@H](CCCNC(=N)N)NC(=O)[C@H](CCC(N)=O)NC(=O)[C@@H](NC(=O)[C@H](C)NC(=O)[C@@H]1CSSC[C@H](NC(=O)[C@H](CCCCN)NC(=O)CC[C@H](NC(=O)CCCCCCCCCCCCCCCCCCC(=O)O)C(=O)O)C(=O)N[C@@H](CC(N)=O)C(=O)N[C@@H]([C@@H](C)O)C(=O)N[C@@H](C)C(=O)N[C@@H]([C@@H](C)O)C(=O)N1)[C@@H](C)O)C(=O)N1CCC[C@H]1C(=O)N[C@@H](CO)C(=O)N[C@@H](CO)C(=O)N[C@H](C(=O)N[C@@H](CC(N)=O)C(=O)N[C@H](C(=O)NCC(=O)N[C@@H](CCCCN)C(=O)N[C@@H](CC(N)=O)C(=O)N[C@H](C(=O)N[C@@H](Cc1ccc(O)cc1)C(N)=O)[C@@H](C)O)C(C)C)[C@@H](C)O
notes: Acylated analogue of human amylin; also called compound 36
B4: N^α1-[2-[2-[2-[[2-[2-[2-[[(4S)-4-carboxy-4-(19-carboxynonadecanoylamino)butanoyl]amino]ethoxy]ethoxy]acetyl]amino]ethoxy]ethoxy]acetyl]-[Arg17,Pro21,Pro27]-h-am … (peptide)
peptide: KCNTATCATQRLANFLRHSSPNFGAIPSSTNVGSNTY
modifications: C20 diacid-gGlu-2xOEG on alpha-amino of the N-terminal residue; Cys2-Cys7 disulfide; C-terminal amide (as human amylin)
notes: Acylated analogue of human amylin; also called compound 24
B5: N^ε1-[2-[2-[2-[[(4S)-4-carboxy-4-(19-carboxynonadecanoylamino)butanoyl]amino]ethoxy]ethoxy]acetyl]-[Arg17,Pro21,Pro27]-h-amylin (peptide)
peptide: K([AEEA-γGlu-C20 diacid])CNTATCATQRLANFLRHSSPNFGAIPSSTNVGSNTY-NH2
modifications: disulfide 2-7; N-terminus assumed
SMILES: CC[C@H](C)[C@H](NC(=O)[C@H](C)NC(=O)CNC(=O)[C@H](Cc1ccccc1)NC(=O)[C@H](CC(N)=O)NC(=O)[C@@H]1CCCN1C(=O)[C@H](CO)NC(=O)[C@H](CO)NC(=O)[C@H](Cc1c[nH]cn1)NC(=O)[C@H](CCCNC(=N)N)NC(=O)[C@H](CC(C)C)NC(=O)[C@H](Cc1ccccc1)NC(=O)[C@H](CC(N)=O)NC(=O)[C@H](C)NC(=O)[C@H](CC(C)C)NC(=O)[C@H](CCCNC(=N)N)NC(=O)[C@H](CCC(N)=O)NC(=O)[C@@H](NC(=O)[C@H](C)NC(=O)[C@@H]1CSSC[C@H](NC(=O)[C@@H](N)CCCCNC(=O)COCCOCCNC(=O)CC[C@H](NC(=O)CCCCCCCCCCCCCCCCCCC(=O)O)C(=O)O)C(=O)N[C@@H](CC(N)=O)C(=O)N[C@@H]([C@@H](C)O)C(=O)N[C@@H](C)C(=O)N[C@@H]([C@@H](C)O)C(=O)N1)[C@@H](C)O)C(=O)N1CCC[C@H]1C(=O)N[C@@H](CO)C(=O)N[C@@H](CO)C(=O)N[C@H](C(=O)N[C@@H](CC(N)=O)C(=O)N[C@H](C(=O)NCC(=O)N[C@@H](CO)C(=O)N[C@@H](CC(N)=O)C(=O)N[C@H](C(=O)N[C@@H](Cc1ccc(O)cc1)C(N)=O)[C@@H](C)O)C(C)C)[C@@H](C)O
notes: Acylated analogue of human amylin; also called compound 41
B6: N^α1-[(4S)-4-carboxy-4-(19-carboxynonadecanoylamino)butanoyl]-[Glu14,Arg17,Pro21,Pro25,Pro28,Pro29]-h-amylin (peptide)
peptide: {C20 diacid-γGlu}-KCNTATCATQRLAEFLRHSSPNFGPILPPTNVGSNTY-NH2
modifications: disulfide 2-7
SMILES: CC[C@H](C)[C@H](NC(=O)[C@@H]1CCCN1C(=O)CNC(=O)[C@H](Cc1ccccc1)NC(=O)[C@H](CC(N)=O)NC(=O)[C@@H]1CCCN1C(=O)[C@H](CO)NC(=O)[C@H](CO)NC(=O)[C@H](Cc1c[nH]cn1)NC(=O)[C@H](CCCNC(=N)N)NC(=O)[C@H](CC(C)C)NC(=O)[C@H](Cc1ccccc1)NC(=O)[C@H](CCC(=O)O)NC(=O)[C@H](C)NC(=O)[C@H](CC(C)C)NC(=O)[C@H](CCCNC(=N)N)NC(=O)[C@H](CCC(N)=O)NC(=O)[C@@H](NC(=O)[C@H](C)NC(=O)[C@@H]1CSSC[C@H](NC(=O)[C@H](CCCCN)NC(=O)CC[C@H](NC(=O)CCCCCCCCCCCCCCCCCCC(=O)O)C(=O)O)C(=O)N[C@@H](CC(N)=O)C(=O)N[C@@H]([C@@H](C)O)C(=O)N[C@@H](C)C(=O)N[C@@H]([C@@H](C)O)C(=O)N1)[C@@H](C)O)C(=O)N[C@@H](CC(C)C)C(=O)N1CCC[C@H]1C(=O)N1CCC[C@H]1C(=O)N[C@H](C(=O)N[C@@H](CC(N)=O)C(=O)N[C@H](C(=O)NCC(=O)N[C@@H](CO)C(=O)N[C@@H](CC(N)=O)C(=O)N[C@H](C(=O)N[C@@H](Cc1ccc(O)cc1)C(N)=O)[C@@H](C)O)C(C)C)[C@@H](C)O
notes: Acylated analogue of human amylin; also called compound 6

target: T1, rat calcitonin receptor; assay: SPA competition vs 125I-calcitonin, membranes with rat CTR (Assay VIII)

Row | IC50 [nM] | Binder
1 | 135 | B1
2 | 108 | B2
3 | 60.1 | B3
4 | 350 | B4
5 | 74.1 | B5
6 | 51.5 | B6

target: T2, rat amylin receptor (rat calcitonin …); assay: SPA competition vs 125I-rat amylin, membranes with rat CTR + rat RAMP3 (Assay VI)

Row | IC50 [nM] | Binder
7 | 1.3 | B1
8 | 0.295 | B2
9 | 1.86 | B3
10 | 3.01 | B4
11 | 1.37 | B5
12 | 2.37 | B6

target: T3, human calcitonin receptor; assay: ratio IC50 human calcitonin receptor / IC50 human amylin receptor
Method in brief: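 Competition binding by SPA with cell membranes (35 ng/μL) and SPA beads in 50 mM Hepes pH 7.4 with 1 mM CaCl2, 5 mM MgCl2, 0.1% OA and 0.02% Tween20. Incubated 120 min at 25 °C with shaking, then counted.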

Row | Ratio hCT/hAmylin binding | Binder
13 | 27.6 | B1
14 | 47.5 | B2
15 | 15.7 | B3
16 | 90 | B4
17 | 49.9 | B5
18 | 20 | B6

target: T1, rat calcitonin receptor; assay: ratio IC50 rat calcitonin receptor / IC50 rat amylin receptor

Row | Ratio rCT/rAmylin binding | Binder
19 | 104 | B1
20 | 366 | B2
21 | 32.4 | B3
22 | 116 | B4
23 | 54 | B5
24 | 21.7 | B6
